# From US10941182 (Amgen, dated 2021)
# Starred links: 1 amine or outer side, 2 acyl side, 3 side chain; linkers in the order of their positions; H or OH if unused. Non-standard residues stand in square brackets, D forms with d. *: point of attachment. dBip = N[C@H](Cc1ccc(-c2ccccc2)cc1)C(=O)O; Oic = O=C(O)[C@@H]1C[C@@H]2CCCC[C@@H]2N1; Phe(4-Cl) = N[C@@H](Cc1ccc(Cl)cc1)C(=O)O; Phe(4-I) = N[C@@H](Cc1ccc(I)cc1)C(=O)O; γGlu = O=C(O)[C@H](CCC(=O)[*:2])N[*:1]; Tridecanoyl = CCCCCCCCCCCCC(=O)*; hArg = N=C(N)NCCCC[C@H](N)C(=O)O; Cha = N[C@@H](CC1CCCCC1)C(=O)O; NMeL = CN[C@@H](CC(C)C)C(=O)O; Nle = CCCC[C@H](N)C(=O)O; AEEA = NCCOCCOCC(=O)O
# B1: apelin polypeptide SEQ ID NO: 17 (peptide)
# peptide: Ac-RQRP[hArg][Cha]SHKG[Oic][Nle]P[Phe(4-Cl)]-OH
# SMILES: CCCC[C@H](NC(=O)[C@@H]1C[C@@H]2CCCC[C@@H]2N1C(=O)CNC(=O)[C@H](CCCCN)NC(=O)[C@H](Cc1c[nH]cn1)NC(=O)[C@H](CO)NC(=O)[C@H](CC1CCCCC1)NC(=O)[C@H](CCCCNC(=N)N)NC(=O)[C@@H]1CCCN1C(=O)[C@H](CCCNC(=N)N)NC(=O)[C@H](CCC(N)=O)NC(=O)[C@H](CCCNC(=N)N)NC(C)=O)C(=O)N1CCC[C@H]1C(=O)N[C@@H](Cc1ccc(Cl)cc1)C(=O)O
# B2: apelin polypeptide SEQ ID NO: 214 (peptide)
# peptide: Tridecanoyl-[γGlu][AEEA][AEEA]RQRP[hArg][Cha]SHKG[Oic][Phe(4-I)]P[dBip]-OH
# SMILES: CCCCCCCCCCCCC(=O)N[C@@H](CCC(=O)NCCOCCOCC(=O)NCCOCCOCC(=O)N[C@@H](CCCNC(=N)N)C(=O)N[C@@H](CCC(N)=O)C(=O)N[C@@H](CCCNC(=N)N)C(=O)N1CCC[C@H]1C(=O)N[C@@H](CCCCNC(=N)N)C(=O)N[C@@H](CC1CCCCC1)C(=O)N[C@@H](CO)C(=O)N[C@@H](Cc1c[nH]cn1)C(=O)N[C@@H](CCCCN)C(=O)NCC(=O)N1[C@H](C(=O)N[C@@H](Cc2ccc(I)cc2)C(=O)N2CCC[C@H]2C(=O)N[C@H](Cc2ccc(-c3ccccc3)cc2)C(=O)O)C[C@@H]2CCCC[C@@H]21)C(=O)O
# B3: apelin polypeptide SEQ ID NO: 221 (peptide)
# peptide: Tridecanoyl-[γGlu][AEEA][AEEA][dR]Q[hArg]P[dR][Cha]SHKG[Oic][Nle]P[Phe(4-Cl)]-OH
# SMILES: CCCCCCCCCCCCC(=O)N[C@@H](CCC(=O)NCCOCCOCC(=O)NCCOCCOCC(=O)N[C@H](CCCNC(=N)N)C(=O)N[C@@H](CCC(N)=O)C(=O)N[C@@H](CCCCNC(=N)N)C(=O)N1CCC[C@H]1C(=O)N[C@H](CCCNC(=N)N)C(=O)N[C@@H](CC1CCCCC1)C(=O)N[C@@H](CO)C(=O)N[C@@H](Cc1c[nH]cn1)C(=O)N[C@@H](CCCCN)C(=O)NCC(=O)N1[C@H](C(=O)N[C@@H](CCCC)C(=O)N2CCC[C@H]2C(=O)N[C@@H](Cc2ccc(Cl)cc2)C(=O)O)C[C@@H]2CCCC[C@@H]21)C(=O)O
# B4: apelin polypeptide SEQ ID NO: 220 (peptide)
# peptide: Tridecanoyl-[γGlu][AEEA][AEEA][dR]Q[hArg]P[dR][NMeL]SHKG[Oic][Nle]P[dBip]-OH
# SMILES: CCCCCCCCCCCCC(=O)N[C@@H](CCC(=O)NCCOCCOCC(=O)NCCOCCOCC(=O)N[C@H](CCCNC(=N)N)C(=O)N[C@@H](CCC(N)=O)C(=O)N[C@@H](CCCCNC(=N)N)C(=O)N1CCC[C@H]1C(=O)N[C@H](CCCNC(=N)N)C(=O)N(C)[C@@H](CC(C)C)C(=O)N[C@@H](CO)C(=O)N[C@@H](Cc1c[nH]cn1)C(=O)N[C@@H](CCCCN)C(=O)NCC(=O)N1[C@H](C(=O)N[C@@H](CCCC)C(=O)N2CCC[C@H]2C(=O)N[C@H](Cc2ccc(-c3ccccc3)cc2)C(=O)O)C[C@@H]2CCCC[C@@H]21)C(=O)O
# B5: apelin polypeptide SEQ ID NO: 218 (peptide)
# peptide: Tridecanoyl-[γGlu][AEEA][AEEA][dR]Q[hArg]P[dR][NMeL]SHKG[Oic][Nle]P[Phe(4-Cl)]-OH
# SMILES: CCCCCCCCCCCCC(=O)N[C@@H](CCC(=O)NCCOCCOCC(=O)NCCOCCOCC(=O)N[C@H](CCCNC(=N)N)C(=O)N[C@@H](CCC(N)=O)C(=O)N[C@@H](CCCCNC(=N)N)C(=O)N1CCC[C@H]1C(=O)N[C@H](CCCNC(=N)N)C(=O)N(C)[C@@H](CC(C)C)C(=O)N[C@@H](CO)C(=O)N[C@@H](Cc1c[nH]cn1)C(=O)N[C@@H](CCCCN)C(=O)NCC(=O)N1[C@H](C(=O)N[C@@H](CCCC)C(=O)N2CCC[C@H]2C(=O)N[C@@H](Cc2ccc(Cl)cc2)C(=O)O)C[C@@H]2CCCC[C@@H]21)C(=O)O
# B6: apelin polypeptide SEQ ID NO: 211 (peptide)
# peptide: Tridecanoyl-[γGlu][AEEA][AEEA]RQRP[dR][NMeL]SHKG[Oic][Phe(4-I)]P[dBip]-OH
# SMILES: CCCCCCCCCCCCC(=O)N[C@@H](CCC(=O)NCCOCCOCC(=O)NCCOCCOCC(=O)N[C@@H](CCCNC(=N)N)C(=O)N[C@@H](CCC(N)=O)C(=O)N[C@@H](CCCNC(=N)N)C(=O)N1CCC[C@H]1C(=O)N[C@H](CCCNC(=N)N)C(=O)N(C)[C@@H](CC(C)C)C(=O)N[C@@H](CO)C(=O)N[C@@H](Cc1c[nH]cn1)C(=O)N[C@@H](CCCCN)C(=O)NCC(=O)N1[C@H](C(=O)N[C@@H](Cc2ccc(I)cc2)C(=O)N2CCC[C@H]2C(=O)N[C@H](Cc2ccc(-c3ccccc3)cc2)C(=O)O)C[C@@H]2CCCC[C@@H]21)C(=O)O
# B7: apelin polypeptide SEQ ID NO: 213 (peptide)
# peptide: Tridecanoyl-[γGlu][AEEA][AEEA][dR]QRP[hArg][NMeL]SHKG[Oic][Phe(4-I)]P[dBip]-OH
# SMILES: CCCCCCCCCCCCC(=O)N[C@@H](CCC(=O)NCCOCCOCC(=O)NCCOCCOCC(=O)N[C@H](CCCNC(=N)N)C(=O)N[C@@H](CCC(N)=O)C(=O)N[C@@H](CCCNC(=N)N)C(=O)N1CCC[C@H]1C(=O)N[C@@H](CCCCNC(=N)N)C(=O)N(C)[C@@H](CC(C)C)C(=O)N[C@@H](CO)C(=O)N[C@@H](Cc1c[nH]cn1)C(=O)N[C@@H](CCCCN)C(=O)NCC(=O)N1[C@H](C(=O)N[C@@H](Cc2ccc(I)cc2)C(=O)N2CCC[C@H]2C(=O)N[C@H](Cc2ccc(-c3ccccc3)cc2)C(=O)O)C[C@@H]2CCCC[C@@H]21)C(=O)O
# B8: apelin polypeptide SEQ ID NO: 217 (peptide)
# peptide: Tridecanoyl-[γGlu][AEEA][AEEA][dR]QRP[hArg][Cha]SHKG[Oic][Phe(4-I)]P[dBip]-OH
# SMILES: CCCCCCCCCCCCC(=O)N[C@@H](CCC(=O)NCCOCCOCC(=O)NCCOCCOCC(=O)N[C@H](CCCNC(=N)N)C(=O)N[C@@H](CCC(N)=O)C(=O)N[C@@H](CCCNC(=N)N)C(=O)N1CCC[C@H]1C(=O)N[C@@H](CCCCNC(=N)N)C(=O)N[C@@H](CC1CCCCC1)C(=O)N[C@@H](CO)C(=O)N[C@@H](Cc1c[nH]cn1)C(=O)N[C@@H](CCCCN)C(=O)NCC(=O)N1[C@H](C(=O)N[C@@H](Cc2ccc(I)cc2)C(=O)N2CCC[C@H]2C(=O)N[C@H](Cc2ccc(-c3ccccc3)cc2)C(=O)O)C[C@@H]2CCCC[C@@H]21)C(=O)O
# B9: apelin polypeptide SEQ ID NO: 219 (peptide)
# peptide: Tridecanoyl-[γGlu][AEEA][AEEA][dR]Q[hArg]P[dR][NMeL]SHKG[Oic][Phe(4-I)]P[Phe(4-Cl)]-OH
# SMILES: CCCCCCCCCCCCC(=O)N[C@@H](CCC(=O)NCCOCCOCC(=O)NCCOCCOCC(=O)N[C@H](CCCNC(=N)N)C(=O)N[C@@H](CCC(N)=O)C(=O)N[C@@H](CCCCNC(=N)N)C(=O)N1CCC[C@H]1C(=O)N[C@H](CCCNC(=N)N)C(=O)N(C)[C@@H](CC(C)C)C(=O)N[C@@H](CO)C(=O)N[C@@H](Cc1c[nH]cn1)C(=O)N[C@@H](CCCCN)C(=O)NCC(=O)N1[C@H](C(=O)N[C@@H](Cc2ccc(I)cc2)C(=O)N2CCC[C@H]2C(=O)N[C@@H](Cc2ccc(Cl)cc2)C(=O)O)C[C@@H]2CCCC[C@@H]21)C(=O)O
# B10: apelin polypeptide SEQ ID NO: 216 (peptide)
# peptide: Tridecanoyl-[γGlu][AEEA][AEEA]RQRP[dR][Cha]SHKG[Oic][Phe(4-I)]P[dBip]-OH
# SMILES: CCCCCCCCCCCCC(=O)N[C@@H](CCC(=O)NCCOCCOCC(=O)NCCOCCOCC(=O)N[C@@H](CCCNC(=N)N)C(=O)N[C@@H](CCC(N)=O)C(=O)N[C@@H](CCCNC(=N)N)C(=O)N1CCC[C@H]1C(=O)N[C@H](CCCNC(=N)N)C(=O)N[C@@H](CC1CCCCC1)C(=O)N[C@@H](CO)C(=O)N[C@@H](Cc1c[nH]cn1)C(=O)N[C@@H](CCCCN)C(=O)NCC(=O)N1[C@H](C(=O)N[C@@H](Cc2ccc(I)cc2)C(=O)N2CCC[C@H]2C(=O)N[C@H](Cc2ccc(-c3ccccc3)cc2)C(=O)O)C[C@@H]2CCCC[C@@H]21)C(=O)O
# B11: apelin polypeptide SEQ ID NO: 215 (peptide)
# peptide: Tridecanoyl-[γGlu][AEEA][AEEA][dR]QRP[dR][Cha]SHKG[Oic][Phe(4-I)]P[dBip]-OH
# SMILES: CCCCCCCCCCCCC(=O)N[C@@H](CCC(=O)NCCOCCOCC(=O)NCCOCCOCC(=O)N[C@H](CCCNC(=N)N)C(=O)N[C@@H](CCC(N)=O)C(=O)N[C@@H](CCCNC(=N)N)C(=O)N1CCC[C@H]1C(=O)N[C@H](CCCNC(=N)N)C(=O)N[C@@H](CC1CCCCC1)C(=O)N[C@@H](CO)C(=O)N[C@@H](Cc1c[nH]cn1)C(=O)N[C@@H](CCCCN)C(=O)NCC(=O)N1[C@H](C(=O)N[C@@H](Cc2ccc(I)cc2)C(=O)N2CCC[C@H]2C(=O)N[C@H](Cc2ccc(-c3ccccc3)cc2)C(=O)O)C[C@@H]2CCCC[C@@H]21)C(=O)O
# How the values were obtained:
# human APJ receptor = target: T1, human APJ receptor (human, UniProt P35414 1-380); test: cell-based or functional assay
# T1 sequence (looked up): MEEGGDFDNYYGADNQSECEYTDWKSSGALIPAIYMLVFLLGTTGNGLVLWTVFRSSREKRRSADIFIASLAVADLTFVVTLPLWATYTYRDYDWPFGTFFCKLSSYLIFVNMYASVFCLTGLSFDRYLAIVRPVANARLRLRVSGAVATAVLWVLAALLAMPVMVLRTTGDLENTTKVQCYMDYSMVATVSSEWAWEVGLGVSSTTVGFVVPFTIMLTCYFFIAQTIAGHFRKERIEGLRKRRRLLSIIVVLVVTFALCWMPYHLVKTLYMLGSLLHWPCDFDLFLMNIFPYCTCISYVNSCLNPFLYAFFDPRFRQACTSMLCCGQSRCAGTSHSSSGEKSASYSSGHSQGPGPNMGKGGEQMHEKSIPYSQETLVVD
# rat APJ receptor = target: T2, rat APJ receptor (rat, UniProt Q9JHG3 1-377); test: cell-based or functional assay
# T2 sequence (looked up): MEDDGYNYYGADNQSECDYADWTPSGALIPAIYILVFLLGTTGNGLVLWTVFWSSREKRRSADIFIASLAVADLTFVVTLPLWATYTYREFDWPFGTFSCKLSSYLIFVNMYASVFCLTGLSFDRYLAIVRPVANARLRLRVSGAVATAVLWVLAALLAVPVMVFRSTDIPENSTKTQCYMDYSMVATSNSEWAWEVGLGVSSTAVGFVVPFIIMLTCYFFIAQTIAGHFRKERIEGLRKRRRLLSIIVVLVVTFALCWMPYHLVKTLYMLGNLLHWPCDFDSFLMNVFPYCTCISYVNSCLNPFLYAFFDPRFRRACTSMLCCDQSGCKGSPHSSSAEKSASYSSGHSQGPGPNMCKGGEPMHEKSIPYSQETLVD
Binder,EC50 Human APJ Receptor (human APJ receptor) [nM],EC50 Rat APJ Receptor (rat APJ receptor) [nM]
B1,0.171,1.59
B2,2.92,5.81
B3,0.196,1.93
B4,2.72,27.6
B5,0.841,14.9
B6,1.9,6.29
B7,0.647,1.17
B8,4.67,8.83
B9,10.1,45
B10,10.8,22.5
B11,8.42,21.4
